Measurements from the DeepSol protein solubility set.

Assay: soluble on expression in E. coli; label from the status in PepcDB or PDB records

**Q.** For “GPGSMMVGKAPKNCVHIGLCVLYSGSGFRGLQIQVHAPTCHTVEGVLIQALKDAGIIADVVRGRPAGEHHHFARSCRTDRGVHAIRNMVSLFVPKEVFEKMGQAEGICEKLNRQLPATVRVANVMQLSGSFIPRHCCNRRVYRYMLPLYALLPPCDTWAAVDKYYPGCLAHVQALAEEAAAAQRTQYSIPYVDLEKMNAVARPADAQALPSSWLRDLKASADRCNQVLRSHFTGSRRYHNFSVDIDSNRSGVSAKVIQPTTDEALRAIYRSEVCPRLFFFPCSTKGGAADEAPVPVHGESRTEYDMNLLRYPPRTPTSPEDTVGGSAAASTTTTPTGTSTTPATCLSPNTTALPFLFFQIEGCSFLLNMIRKIIGSVLAVCRGARESILEDAFSPECRVTTPLAPGPYLYLAQSTYHGYDRSIGGAGNAHQPGRLKTVQDAWGGAVSEAAELFAFHKIAADIVDVDLNAMPPLDDILAARDRAREASRPHTAVEDAHLAEMKEYKPVLPTRIPWPASSDMTVFLRLLRVHNWNVRPIQLDPACKALREIKNRKERLTASSVAAAASPGAEASKAGEADGGDTRANEATVEQAATPTGDAWRIRSEGSSTGGVPEGGEDGWLYVADTPEEASVQRQAYFASLWKRARPWEYDDATGKSLIHGGEVGTEDDFDDGDGSTARPRRHRRV”, which “soluble on expression in E. coli” value is on record?
**A.** soluble

**Q.** With “GPGSMPPAPAPPFSSVSQCLSALLPPTAFSLLPLTHTHTHTHTHRTCTHIIFSEPHIVFYCVCPFTRCHRRRPLPSPLSLSLPQHTTLSTAINKHEAEVVLDWSMSRLARALAKPFTVPVAMCTRHVAAMDEPLKRHIDAYAARGEDITIAVWREYVDGQRALLPYRWTKFRSEVAYLTSGQMAITDLTFADLLVFIRFLTKCLFIFIVAVMVGRRSVFPSLEPTSPFVEEIVKNWQPNRLHGVAGAEYMACDQAAAAGYGHR” as the sequence, how does the “soluble on expression in E. coli” value read?
**A.** soluble

**Q.** Which “soluble on expression in E. coli” value does the source give for “GPGSMPVPPPPPPPPPPPPPPPPPANSGGPSASVGGAAAAVFAEICQGGDNITARLRHVTDDQKMYKQNIRHGEVDMSELEHKKAAAEERRRAQQRTESTTGEEAAQPPVLTLEGDKRWVVKHQAGSPAVQLQLVLDKAEMRHAVRIENCHHAYITITNKVNSVSIVNCTKVQVALQVIVSSLEVLGCADVDVQVAQAAPTIDIERSTSVNVYLLDKDEARNTEIVTACSSTVNVLFPSEKEEDIVERAIPEQFVTRIVPDGKGGHKLCTKPSESF” here?
**A.** soluble

**Q.** With “GPGSMQIRRATMEDMYQMQHCNLRCLPENYNLRYYFYHILSWPQLLYVQEDYNRNIVGYVLAKMEDEEKPANIHGHITSIAVLRTHRRLGIASRVMRASMKEMEKEYDANYCSLHVRKTNDAALHLYQETLGFRCANVEKGYYVDEEDAFHMKKFFKGPNPGLYVAANRQLVRQQNSAAAAVTGMAALQRNGGTAPPPPPPSSSSAGGQRGENDTADLEKEQLKLVAELLEESNKESGKGRQQKQKQQQQSKGGNKRGKTKK” as the sequence, how does the “soluble on expression in E. coli” value read?
**A.** soluble

**Q.** Which “soluble on expression in E. coli” value does the source give for “GPGSMRDHAPTSAASATALVNPSLPNSSVVDASLTGAQKKSGASSTRQRPPTPLPSTTPPRSEQHYRMTETEAWLSASFGNLATMGDSNGNSGGARRHGGPSPSAAFPLTFQEVPAAVVNHLLSRITLIQSEEQRHRDAVTVEGREVSGSPEMADGAPLPTRNECRAIGEFMLANDTLLGRRPREGIDASACAPSALRLVSMPLFGDHRLATYSPQGAAANRRRRRRSKNRRAAGGGGDDVGELPCLATGNAGLAEPQEARGNGAGATPSTTSHPYSPRTFFVATQSHDVRRRLAAVTPLLRLTTNPDALWIEQRGTAYHYGEEGAEARRPHIDMKGLGNCSSFSVAAAASSRGGRGSSEPGPPRSASFSHTPSFPHAATATTTVIAAAPQLSRADVAFMKHLGTAAEVPLPAKPSHHPHQQEQQQLQLRASPASDTGVSNRAPVDRKRRRQKGQNPLSMKKKQRREVFRAH” here?
**A.** not soluble

**Q.** Which “soluble on expression in E. coli” value does the source give for “GPGSMRLLSKAAHPDGSMEVRVSVGTAEDLWHLYNFILVGDLVLTKTRRKVPRENALGTLAAEMKMLKLEVEVKHIAFTPDELRIQGVNKKENNFVKTGAHHTLTIHANPPQEVRITKREWDSICEDRLKDACDESGKADTAAVLMSFGEAQVLLVTRSFVHIKAKVEVTISKKHKSDGKARDKSIERFFKQSLDALVTHVDFEKTKLVLLCSPGHVREEFHAYIKEVTQRADHGPLREVYLNLSRFLLVKVSSTTISGLKEALSDPGVAQRMESTKCVDDIRMWEKFQDTMNKDPDRCVYTPQYVYYAAMAGAVGGLMISDDVFRSENPTERRFFLSLVNFVRQSGSPTVNVFSSKHVTGEQLTQLGSVAAVLRFSCPEIDDMEVVPEFLASKEVEEFIRANATARVTV” here?
**A.** not soluble
